Key:
huCD98hc ECD Avi-His [1] = molecular target: T1, huCD98hc ECD Avi-His (human, UniProt P08195 105-529); experiment: SPR, Biacore T200, anti-kappa capture
T1 construct: biotinylated on the Avi tag where captured on streptavidin; also called Human CD98-AVI-His; Human CD98hc-AVI-His
T1 sequence: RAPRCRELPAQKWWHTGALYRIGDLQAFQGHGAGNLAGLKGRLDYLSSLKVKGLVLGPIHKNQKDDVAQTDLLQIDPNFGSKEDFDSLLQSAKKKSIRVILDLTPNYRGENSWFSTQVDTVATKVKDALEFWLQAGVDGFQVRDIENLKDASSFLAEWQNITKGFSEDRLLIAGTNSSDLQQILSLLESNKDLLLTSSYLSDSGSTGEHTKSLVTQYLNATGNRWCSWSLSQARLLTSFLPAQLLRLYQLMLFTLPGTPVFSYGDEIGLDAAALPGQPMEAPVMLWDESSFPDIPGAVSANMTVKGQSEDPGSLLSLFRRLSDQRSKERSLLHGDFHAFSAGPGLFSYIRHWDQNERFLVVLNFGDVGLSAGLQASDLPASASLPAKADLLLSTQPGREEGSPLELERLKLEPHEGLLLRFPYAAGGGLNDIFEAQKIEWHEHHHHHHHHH
Method: (§1) Binding kinetics of 2+1 anti-CD98hc bispecific antibodies to recombinant human and cynomolgus CD98hc ECD Avi-His were evaluated using a Biacore T200 instrument (Global Life Sciences Solutions USA LLC, Marlborough, MA). The 2+1 anti-CD98hc bispecific antibodies were prepared by diluting to 50 μg/mL in running buffer HBS-EP+ (Teknova) with 0.5 mg/mL BSA (MP Biomedicals) and captured by a goat anti-human kappa polyclonal antibody (Southern Biotech) surface that was prepared according to the instrument manufacturer's recommendations. Two independent experiments were performed as follows, resulting in an N of between one and […] determinations for each antibody. Estimates of affinity were generated by injecting each analyte over captured antibody on Flowcell 2, 3, or 4. CD98hc ECD Avi-His analytes were diluted with running buffer, in a series of five, three-fold serial dilutions starting from 600 nM. Analytes were injected without regeneration, from lowest to highest concentration, for 5 minutes each, and dissociation was followed for 15 minutes. After each analyte injection series, antibodies were regenerated with 10 mM glycine pH 2.0 buffer (Cytiva). Data were processed and analyzed using Biacore T200 BiaEvaluation software (Cytiva).
(§2) The equilibrium dissociation constants (KD) were calculated from the fitted association and dissociation rate constants (k-on and k-off) for 2+1 anti-CD98hc bispecific antibodies of the present disclosure binding to human and cynomolgus CD98hc ECD Avi-His. For measurements with N>1, means and standard deviation were calculated and measurements for all samples were combined and graphed using GraphPad Prism.

Cyno CD98hc ECD Avi-His [2] = molecular target: T2, Cyno CD98hc ECD Avi-His (cynomolgus macaque, UniProt P08195 105-529 (human entry)); experiment: SPR, Biacore T200, anti-kappa capture
T2 construct: biotinylated on the Avi tag where captured on streptavidin; also called Cyno CD98-AVI-His; Cyno CD98hc-AVI-His
T2 chain: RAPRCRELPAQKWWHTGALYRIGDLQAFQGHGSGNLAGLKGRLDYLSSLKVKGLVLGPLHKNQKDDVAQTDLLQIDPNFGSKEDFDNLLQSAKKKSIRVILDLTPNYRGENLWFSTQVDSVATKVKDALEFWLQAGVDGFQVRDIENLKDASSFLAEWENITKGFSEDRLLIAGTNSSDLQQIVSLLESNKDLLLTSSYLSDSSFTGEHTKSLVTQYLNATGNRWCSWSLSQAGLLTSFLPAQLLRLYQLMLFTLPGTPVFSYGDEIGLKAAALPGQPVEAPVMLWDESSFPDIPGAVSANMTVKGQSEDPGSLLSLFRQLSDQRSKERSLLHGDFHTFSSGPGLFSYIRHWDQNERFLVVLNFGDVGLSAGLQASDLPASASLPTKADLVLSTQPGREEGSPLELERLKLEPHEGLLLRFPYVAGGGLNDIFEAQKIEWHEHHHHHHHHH
Method: as §1, §2

huCD98hc ECD Avi-His [3] = molecular target: T1, huCD98hc ECD Avi-His; experiment: SPR, Biacore T200, Protein A/G capture
Method: (§3) Binding kinetics of humanized anti-CD98hc antibodies were evaluated using the Biacore T200 (Cytiva). Briefly, IgGs were diluted to 10 μg/mL and captured using a Protein A/G (ThermoFisher, #21186) surface on a CM5 chip that was prepared by amine coupling according to the instrument manufacturer's recommendations. The captured antibodies were tested for their ability to bind human and cynomolgus monkey CD98hc as follows.
(§4) Each sample was injected for 2 minutes to allow association, followed by dissociation in buffer alone for 10 minutes. Each sample injection was followed by the regeneration of the chip with three 30-second injections of 10 mM glycine pH 1.7. Fresh antibody was captured at the beginning of each cycle.
(§5) Data were analyzed using Biacore evaluation software to generate kinetic constants. The equilibrium dissociation constants (KD) were calculated from the fitted association and dissociation rate constants (k-on and k-off) for each of the anti-CD98hc antibodies.

Cyno CD98hc ECD Avi-His [4] = molecular target: T2, Cyno CD98hc ECD Avi-His; experiment: SPR, Biacore T200, Protein A/G capture
Method: as §3, §4, §5

Row | Binder | Kd (huCD98hc ECD Avi-His [1]) | Kd (Cyno CD98hc ECD Avi-His [2]) | Kd (huCD98hc ECD Avi-His [3]) | Kd (Cyno CD98hc ECD Avi-His [4])
1 | CD98hc.04.064.1d (humanized, 2+1 format) (bispecific antibody, tested as 2+1 bispecific (scFv on an IgG)) scFv: QVQLVQSGAEVKKPGASVKVSCKASGYTFTSYWMNWVRQAPGQGLEWMGIIDPSDSETSYAQKFQGRVTMTVDKSTSTVYMELSSLRSEDTAVYYCARASYGKGYFDYWGQGTLVTVSSGGSEGKSSGSGSESKSTGGSDIVMTQSPDSLAVSLGERATINCKSSQSLLNNINQKNYLAWYQQKPGQPPKLLIYFASTRESGVPDRFSGSGSGTDFTLTISSLQAEDVAVYYCQQHYSSPFTFGGGTKVEIK | 24 nM | 360 nM | 35 nM | 1500 nM
2 | CD98hc.04.064.1e (humanized, 2+1 format) (bispecific antibody, tested as 2+1 bispecific (scFv on an IgG)) scFv: QVQLVQSGAEVKKPGASVKVSCKASGYTFTSYWMHWVRQAPGQGLEWMGIIDPSDSETHYAQKFQGRVTMTVDKSTSTVYMELSSLRSEDTAVYYCARASYGKGYFDYWGQGTLVTVSSGGSEGKSSGSGSESKSTGGSDIVMTQSPDSLAVSLGERATINCKSSQSLLNNINQKNYLAWYQQKPGQPPKLLIYFASTRESGVPDRFSGSGSGTDFTLTISSLQAEDVAVYYCQQHYSSPFTFGGGTKVEIK | 13 nM | 120 nM | 25 nM | 740 nM
3 | CD98hc.04.064.4b (humanized, 2+1 format) (bispecific antibody, tested as 2+1 bispecific (scFv on an IgG)) scFv: QVQLVQSGAEVKKPGASVKVSCKASGYTFTSYWMNWVRQAPGQGLEWMGIIDPSDSETNYAQKFQGRVTSTVDKSISTAYMELSRLRSDDTVVYYCARASYGKGYFDYWGQGTLVTVSSGGSEGKSSGSGSESKSTGGSDIVMTQSPDSLAVSLGERATINCKSSQSLLNNINQKNYLAWYQQKPGQPPKLLIYFASTRESGVPDRFSGSGSGTDFTLTISSLQAEDVAVYFCQQHYSSPFTFGGGTKVEIK | 30 nM | 620 nM |  | 
4 | CD98hc.04.064.4c (humanized, 2+1 format) (bispecific antibody, tested as 2+1 bispecific (scFv on an IgG)) scFv: QVQLVQSGAEVKKPGASVKVSCKASGYTFTSYWMHWVRQAPGQGLEWMGIIDPSDSETNYAQKFQGRVTSTVDKSISTAYMELSRLRSDDTVVYYCARASYGKGYFDYWGQGTLVTVSSGGSEGKSSGSGSESKSTGGSDIVMTQSPDSLAVSLGERATINCKSSQSLLNNINQKNYLAWYQQKPGQPPKLLIYFASTRESGVPDRFSGSGSGTDFTLTISSLQAEDVAVYYCQQHYSSPFTFGGGTKVEIK | 17 nM | 310 nM |  | 
5 | CD98hc.04.064.4d (humanized, 2+1 format) (bispecific antibody, tested as 2+1 bispecific (scFv on an IgG)) scFv: QVQLVQSGAEVKKPGASVKVSCKASGYTFTSYWMHWVRQAPGQGLEWMGIIDPSDSETSYAQKFQGRVTMTRDTSTSTVYMELSSLRSEDTAVYYCARASYGKGYFDYWGQGTLVTVSSGGSEGKSSGSGSESKSTGGSDIQMTQSPSSLSASVGDRVTITCRASQSLLNNINQKNYLAWYQQKPGKAPKLLIYFASSLQSGVPSRFSGSGSGTDFTLTISSLQPEDFATYYCQQHYSSPFTFGGGTKVEIK | 12 nM | 160 nM | 18 nM | 340 nM

— patent publication US20250270341A1 (Alector, published 2025)
